Patent US20190169301A1 (Boehringer Ingelheim, published 2019)

Columns and labels:
[1] = molecular target: T1, human CD40 on cells (CD40-transfected HEK293 cells, Ramos cells, human B cells, human platelets) (human, UniProt P25942 21-277); assay: cell binding, flow cytometry (cell type not given)
T1 construct: whole, on cells; also called cellular CD40

[2] = molecular target: T1, human CD40 on cells (CD40-transfected …); assay: cell-based or functional assay
human CD40-Fc protein = molecular target: T2, human CD40-Fc protein (human, UniProt P25942 21-193); assay: ForteBio Octet, human CD40-Fc, +/- human serum
T2 construct: also called recombinant CD40 protein; not shown: Fc part
T2 sequence (P25942 21-193 limits assumed): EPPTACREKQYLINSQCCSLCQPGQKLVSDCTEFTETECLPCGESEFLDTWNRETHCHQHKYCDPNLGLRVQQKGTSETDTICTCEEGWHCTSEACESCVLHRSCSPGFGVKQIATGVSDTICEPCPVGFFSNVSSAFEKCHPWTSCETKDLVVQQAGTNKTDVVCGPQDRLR
Procedure: Due to antibody and CD40-Fc bivalency avidity effects prevent Kds below 100 pM from being determined accurately. In addition, the binding to CD40-Fc was analyzed in the absence and presence of 50% human serum and no significant effect of serum on binding was observed (data not shown)

[3] = molecular target: T1, human CD40 on cells (CD40-transfected …); assay: flow cytometry, human CD40-transfected HEK293 cells
Procedure: (§1) The specific binding of humanized antibodies to cellular CD40 was analyzed by flow cytometry using human CD40-transfected HEK293 cells. Concentration-dependent binding of Antibody A, Antibody B, and Antibody C was observed. […] No binding was detected on CD40 negative cells such as non-transfected HEK293 cells or the T cell line HSB-2 thus confirming selective binding to CD40 (data not shown).

[4] = molecular target: T3, cynomolgus monkey CD40 on cells (B cells, platelets) (cynomolgus monkey, UniProt G7PG38 21-278); assay: EC50 ratio human/cyno; ratio > 1 means increased binding to Cyno compared to Human
T3 construct: whole, on cells

[5] = molecular target: T1, human CD40 on cells (CD40-transfected …); assay: flow cytometry (MFI) on CD40-transfected HEK cells
Procedure: as §1

[6] = molecular target: T1, human CD40 on cells (CD40-transfected …); assay: flow cytometry (MFI) on human CD40-transfected HEK-293 cells
Procedure: as §1

[7] = molecular target: T1, human CD40 on cells (CD40-transfected …); assay: flow cytometry, directly labeled antibody, platelets in human whole blood (n = 5); range in brackets
[8] = molecular target: T1, human CD40 on cells (CD40-transfected …); assay: flow cytometry, directly labeled antibody, B cells in human whole blood (n = 6); range in brackets
[9] = molecular target: T3, cynomolgus monkey CD40 on cells (B …); assay: flow cytometry, directly labeled antibody, platelets in cynomolgus whole blood (n = 5); range in brackets
[10] = molecular target: T3, cynomolgus monkey CD40 on cells (B …); assay: flow cytometry, directly labeled antibody, B cells in cynomolgus whole blood (n = 5); range in brackets
[11] = molecular target: T1, human CD40 on cells (CD40-transfected …); assay: flow cytometry (mean fluorescence intensity), FITC-labeled antibody on human platelets
[12] = molecular target: T1, human CD40 on cells (CD40-transfected …); assay: cell-based or functional assay; remark: listed apart in the source

T1 sequence (P25942 21-277): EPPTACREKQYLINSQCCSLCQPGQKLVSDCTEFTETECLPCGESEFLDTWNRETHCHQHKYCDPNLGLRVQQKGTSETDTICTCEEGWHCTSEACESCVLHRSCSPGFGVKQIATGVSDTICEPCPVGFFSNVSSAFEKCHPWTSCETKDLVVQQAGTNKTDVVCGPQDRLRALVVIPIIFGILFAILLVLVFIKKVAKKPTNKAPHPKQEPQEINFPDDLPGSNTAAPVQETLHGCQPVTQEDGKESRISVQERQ

Binder	EC50 [1]	B cell proliferation:Agonism (SI*) [2]	Kd (human CD40-Fc protein)	EC50 [3]	Species cross-react.:Hu/Cyno Binding (EC50 ratios) [4]	EC50 (read off the curve) [5]	EC50 [6]	EC50 [7]	EC50 [8]	EC50 [9]	EC50 [10]	binding result [11]	B cell proliferation assay, average IC50 [12]
Antibody A (IgG1KO) (antibody, V domains shown, also called 20E2-12) VH: EVQLVESGGGLVKPGGSLRLSCAASGFTFSDYGMHWVRQAPGKGLEWVAYISSGNRIIYYADTVKGRFTISRDNAKNSLYLQMNSLRAEDTALYYCARQDGYRYAMDYWAQGTLVTVSS VL: DIVMTQSPDSLAVSLGERATMSCKSSQSLLNSGNQKNYLTWHQQKPGQPPKLLIYWTSTRESGVPDRFSGSGSGTDFTLTISSLQAEDVAVYYCQNDYTYPLTFGGGTKVEIKR	1.2 nM	< 2 SI (Stimulation Index)	< 0.1 nM	~1 nM	3 ratio	~1 nM							
Antibody B (IgG1KO) (antibody, V domains shown) VH: EVQLVESGGGLVKPGGSLRLSCAASGFTFSDYGMHWVRQAPGKGLEWVAYISSGNRIIYYADTVKGRFTISRDNAKNSLYLQMNSLRAEDTAVYYCARQDGYRYAMDYWGQGTLVTVSS VL: DIVMTQSPDSLAVSLGEKVTINCKSSQSLLNSGNQKNYLTWHQQKPGQPPKLLIYWTSTRESGVPDRFSGSGSGTDFTLTISSLQAEDVAVYYCQNDYTYPLTFGGGTKVEIKR	1.5 nM	< 2 SI (Stimulation Index)	< 0.1 nM	~1 nM	2 ratio	~2 nM	1 nM	4.6 nM	1.8 nM	3.9 nM	2.1 nM		
4D11 (Kirin/Astellas) anti-CD40 antibody (antibody, V domains shown) VH: QLQLQESGPGLLKPSETLSLTCTVSGGSISSPGYYGGWIRQPPGKGLEWIGSIYKSGSTYHNPSLKSRVTISVDTSKNQFSLKLSSVTAADTAVYYCTRPVVRYFGWFDPWGQGTLVTVSS VL: AIQLTQSPSSLSASVGDRVTITCRASQGISSALAWYQQKPGKAPKLLIYDASNLESGVPSRFSGSGSGTDFTLTISSLQPEDFATYYCQQFNSYPTFGQGTKVEIK	0.9 nM	< 2 SI (Stimulation Index)	< 0.1 nM	~1 nM									~0.02 nM

The next lines start with the values.

EC50 [1]	B cell proliferation:Agonism (SI*) [2]	Kd (human CD40-Fc protein)	EC50 [3]	Species cross-react.:Hu/Cyno Binding (EC50 ratios) [4]	EC50 (read off the curve) [5]	EC50 [6]	EC50 [7]	EC50 [8]	EC50 [9]	EC50 [10]	binding result [11]	B cell proliferation assay, average IC50 [12]	Binder
											binds		2H11 (murine anti-human CD40 antibody) (antibody, V domains shown, Mouse monoclonal antibody) VH: EVQLQQSGAELVRPGASVKLSCTASGFNIKDYYVHWVKQRPEKGLEWIGRIDPEDGDSKYAPKFQGKATMTADTSSNTAYLHLSSLTSEDTAVYYCTTSYYVGTYGYWGQGTTLTVSS VL: QIVLTQSPAIMSASPGEKVTITCSASSSVSYMLWFQQKPGTSPKLWIYSTSNLASGVPARFGGSGSGTSYSLTISRMEAEDAATYYCQQRTFYPYTFGGGTKLEIK
1.7 nM	< 2 SI (Stimulation Index)	< 0.1 nM	~1 nM	1 ratio	~0.8 nM								Antibody C (IgG1KO) (antibody, V domains shown, also called 2H11-159-94) VH: QVQLVQSGAEVKKPGASVKVSCTASGFNIKDYYVHWVKQAPGQGLEWMGRIDPEDGDSKYAPKFQGKATMTADTSTSTVYMELSSLRSEDTAVYYCTTSYYVGTYGYWGQGTLVTVSS VL: DIQMTQSPSSLSASVGDRVTITCSASSSVSYMLWFQQKPGKAPKLLIYSTSNLASGVPSRFSGSGSGTDFTLTISSLQPEDFATYYCQQRTFYPYTFGGGTKVEIKR
